Laboratory results as given in patent US7790845B2, “Bacterial ion channel” (Children's Medical Center Corporation, priority 2001, dated 2010).
Where two headings read alike, the source gives them in different places. Marks after values point to notes of the source that are not given here.

Tests used:
Format in all cases: cell-based
[1] = molecular target: NaChBac (Halalkalibacterium halodurans (Bacillus halodurans), UniProt Q9KCR8, S273L); assay: cell-based
[2] = system: CHO-K1 cells or COS-7 cells; assay: Ca2+/Na+ selectivity of wt and mutant NaChBac, reversal potential under bi-ionic conditions (Example 2); conditions: for PCa/PNa: external solution 80 NMDG-Cl, 50 CaCl2, 20 HEPES
Experimental: (§1) Unless otherwise stated, the pipette solution contained (in mM); 147 Cs, 120 methanesulfonate, 8 NaCl, 10 EGTA, 2 Mg^2+-adenosine triphosphate, and 20 HEPES (pH 7.4). Bath solution contained (in mM); 140 NaCl, 10 CaCl2, 5 KCl, 10 HEPES (pH 7.4), and 10 glucose. For some experiments, NaCl was isotonically replaced by CaCl2.
For reversal potential measurements to determine the relative permeabilities of Na^+ and Ca^2+, the internal pipette solution contained (in mM): 100 mM Na-Gluconate, 10 NaCl, 10 EGTA, 20 HEPES-Na (pH 7.4 adjusted with NaOH, [Na^+]total=140). The external solution was (in mM): 140 NMDG-Cl, 10 CaCl2, 20 HEPES (pH 7.4 adjusted with HCl) or 80 NMDG-Cl, 50 CaCl2, and 20 HEPES. The fast kinetics and small current amplitude of SKM1 in 10 mM [Ca^2+]o necessitated the use of 50 mM [Ca^2+]o for accurate determination of Erev. The permeability ratio of Ca2+ was estimated according to the following equation: PCa/Px=asi(exp(ErevF/RT)[(exp(ErevF/RT)+1]/(4ase) where R, T, F, and Erev are the gas constant, absolute temperature, Faraday constant, and reversal potential, respectively, and x represents Cs^+ or Na^+ (i, internal; e, external) (Hille 2001). For calculations of membrane permeability, activity coefficients for Ca^2+, Cs^+ and Na^+ were estimated as follows: as=γs[Xs] where activity, as, is the effective concentration of an ion in solution, s related to the nominal concentration [Xs] by the activity coefficient, γs·γs was calculated from the Debye-Hückel equation: log γs=−0.51*zs^2√μ/[1+3.8ασ√μ] where μ is the ionic strength of the solution, zs is the charge on the ion, and αs is the effective diameter of the hydrated ion in nanometers (nm). The calculated activity coefficients were γ(Cs)i=0.70, γ(Ca)e=0.331, γ(Na)i=0.75 and γ(Na)e=0.73. The liquid junction potentials were measured using a salt bridge as described by Neher (Neher 1992) and these measurements agreed within 3 mV to those calculated by the JPCalc program (P. Barry) within Clampex (Axon Instruments, Union City, Calif.).
Reversal potentials of the NaChBac mutants were measured under bi-ionic conditions as described in the Methods. […] The average peak current amplitude measured at 0 mV obtained in 10 mM Ca^2+ Tyrode's solution or in 105 mM Ca^2+ solution is shown in FIG. 7B and normalized to the current amplitude measured in 10 mM Ca^2+ solution (FIG. 7C).
Relative permeability (PCa/PNa) was calculated as described in the Methods and Table 1. Since PCa/PNa had not been described for native Nav channels under these specific conditions, we also measured the relative permeability for SKM1, a skeletal muscle Na^+-selective channel (SKM1; Kraner, Rich et al. 1998) was expressed in COS and CHO cells and examined under identical conditions as NaChBac and similar to its mutants; Table 1).

[3] = system: CHO-K1 or COS-7 cells; assay: Whole-cell current, activation, inactivation and recovery of NaChBac (Example 1)
[4] = system: CHO-K1 or COS-7 cells; assay: Single channel properties of NaChBac, inside-out patch
From the text: The single channel properties of NaChBac were studied in the inside-out patch configuration. Solutions were the same as used in whole-cell recording except that the pipette and bath solutions were reversed. The unitary single channel conductance was best fit with a slope of 12 pS±1 pS (n=7 cells). Consistent with the whole-cell current, single channels were activated by depolarization and both open and closed times varied as a function of voltage (not shown). An ensemble average of single channel currents from 5 cells resembled whole cell INaChBac with τact=10±3.5 ms and τinact=203±43 ms (FIG. 2D).

[5] = system: CHO-K1 or COS-7 cells; assay: Ion selectivity and relative permeability of NaChBac (Example 1)
From the text: The internal pipette solution used in determining the relative permeability of K^+ and Ca^2+ contained (in mM) 133 Cs-methanesulfonate, 5 CsCl, 10 EGTA, 10 HEPES (pH adjust to 7.2 with CsOH). External solution for K^+ permeability experiments contained 142 KCl, 10 HEPES, 10 glucose (pH 7.3 adjusted with KOH). External solution for Ca^+ permeability determinations contained 105 CaCl2, 10 HEPES, 20 glucose (pH 7.3, adjusted with Ca(OH2). The external solution used to study Ma^+ permeability contained (in mM): 140 NaCl, 5CsCl, 10 HEPES, 10 glucose (pH 7.3, adjusted with NaOH). Internal solutions were the same as described in the Detection of Current example. The relative permeability of Cs^+ versus Na^+ was calculated according to: PCs/PNa=([Na]o−[Na]iexp(ErevF/RT)/([Cs]iexp(Erev/RT)/([Cs]o) (1)
The relative permeabilities of K^+ and Ca^2+ were evaluated under bi-ionic conditions, and the relative permeability of K^+ and Ca^2+ to Cs^+ was calculated according to the following equations: Pk/PCs=[Cs]iexp(ErevF/RT)/[K]o (2) PCa/Pcs=([Cs]iexp(ErevF/RT){exp(ErevR/RT)+1}/4[Ca]o) (3)
INaChBac was weakly permeant to Ca^2+; no significant difference in current was observed by sequential perfusion with bath solution containing 1 and 10 mM [Ca^2+]o (FIG. 3B). In isotonic [Ca^2+]o (cations replaced with 105 mM Ca^2), in the inward current was <6% of that in normal [Na^+] (7.6±0.9 pA/pF at −10 mV, n=8; FIG. 3B). In contrast, INaChBac, amplitude correlated well with [Na^+]o (FIG. 3C, D). […] To estimate the relative ion selectivity of the channel, we measured changes in reversal potential while changing ionic composition. The calculated relative selectivity (±SEM) of NaChBac based on measured Erev was: PNa/PCa=72±10 (n=12); PNa/PCs=383±56(n=8); PNa/PK=171±16(n=8). INaCahBac selectivity for Na^+ is at least as high as traditional Nav channels (1, 14).

[6] = system: CHO-K1 cells or COS-7 cells; assay: Expression, voltage- and time-dependence of wt and mutant NaChBac (Example 2)
From the text: NaChBac was cloned from Bacillus halodurans C-125 DNA by the polymerase chain reaction (PCR; BAB05220) (Ren, Navarro et al. 2001). The NaChBac construct containing an open reading frame of 274 amino acid residues was subcloned into a pTracer-CMV2 vector (Invitrogen, Carlsbad, Calif.) containing enhanced green fluorescent protein (eGFP). The skeletal muscle Na^+ channel SKM1 (M26643) was used in comparison to NaChBac under identical recording conditions and determinations of permeability ratios. Mutations were introduced into the NaChBac cDNA by site-directed mutagenesis (Quickchange™ site-directed mutagenesis kit; Stratagene; La Jolla, Calif.). All mutations were confirmed by DNA sequencing and restriction digestion. Wild-type NaChBac and mutant cDNAs were transfected into CHO-K1 cells or COS-7 cells with LipofectAMINE 2000 (Life Technologies, Rockville, Md.). Transfected cells were identified by fluorescence microscopy and membrane currents were recorded 24 to 48 hours after transfection.
as §1
The voltage dependence of NaChBac and mutants channel activation was determined from a holding potential of −100 mV. Instantaneous tail current were measured at −100 mV after a test potential of 40 ms duration. Normalized tail current amplitude was plotted vs. test potentials and fitted with a Boltzmann function. Measurements of steady state inactivation for NaChBac and mutants channel were resolved using 2 s prepulses and 1 s test pulse to −10 mV, 0 mV or +20 mV depending on the mutant's peak voltage. Cells were held at −100 mV for 20 s between pulses to allow the recovery from inactivation. Normalized test current amplitude was plotted vs. prepulse potential and fitted with a Boltzmann function. The activation and steady state inactivation curve were fitted by the Boltzmann equation: I=Imax−(Imax−Imin)/(1+exp((V−V1/2)/k)) where Imax and Imin are the maximum and minimum current values, V is the test voltage, V1/2 is the voltage activation midpoint and k is the slope factor.
Whole-cell currents were recorded using an Axopatch 200B (Axon Instruments, Union City, Calif.) amplifier. Data were digitized at 10 or 20 kHz, and digitally filtered off-line at 1 kHz. Patch electrodes were pulled from borosilicate glass and had resistances of 2-5 MΩ. All experiments were conducted at 22°±2° C. For CHO cells, cell capacitance was 7.6±0.3 pF and for COS-7 cells was 13.9±0.6 pF. […] Series resistance (Rs) was compensated up to 90% to reduce all series resistance errors to <5 mV. Cells in which […] were discarded. Pooled data are presented as means±SEM. Statistical comparisons were made using two-way analysis of variance (ANOVA) and two-tailed t-test with Bonferroni correction; P<0.05 indicated statistical significance.

[7] = calculated from measured Erev, n=8

[Cd+2] [Cd^2+]
reduction of the channel current [1]: reduced the channel current to various degrees

[Co+2] [Co^2+]
reduction of the channel current [1]: reduced the channel current to various degrees

[Ni+2] [Ni^2+]
IC50 ([1]; read-out: concentration of agent needed to block INaChBac by 50% (IC50)): 720 µM

COCC(=O)O[C@]1(CCN(C)CCCc2nc3ccccc3[nH]2)CCc2cc(F)ccc2[C@@H]1C(C)C [mibefradil]
IC50 [1]: 22 µM
sensitivity of INaChBac to the blocker (figure legend) [1]: relatively insensitive

COC(=O)C1=C(C)NC(C)=C(C(=O)OC)C1c1ccccc1[N+](=O)[O-] [nifedipine, Nifedipine]
IC50 [1]: 2.2 µM

COCCOC(=O)C1=C(C)NC(C)=C(C(=O)OC(C)C)C1c1cccc([N+](=O)[O-])c1 (stereo not drawn) [nimodipine]
IC50 [1]: 1 µM

NC1=N[C@H](O)[C@H]2[C@H]3O[C@]4(O)O[C@@H]([C@@H](O)[C@@]2(N1)[C@@H]4O)[C@]3(O)CO [tetrodotoxin, Tetrodotoxin]
block of INaChBac [1]: completely insensitive
sensitivity of INaChBac to the blocker (figure legend) [1]: insensitive

SKM1: skeletal muscle Na+ channel SKM1 (M26643), used in comparison to NaChBac [reference compound]
PCa/PNa [2]: 0.32 ± 0.07 (n = 8)^c

ω-Agatoxin IVA
block of INaChBac [1]: ineffective

ω-Conotoxin GVIA
block of INaChBac [1]: ineffective

B1: NaChBac: bacterial voltage-sensitive Na+-selective ion channel from Bacillus halodurans, 274 amino acids, SEQ ID NO: 1; pore residues 190-195 LESWAS (protein)
chain: MKMEARQKQNSFTSKMQKIVNHRAFTFTVIALILFNALIVGIETYPRIYADHKWLFYRIDLVLLWIFTIEIAMRFLASNPKSAFFRSSWNWFDFLIVAAGHIFAGAQFVTVLRILRVLRVLRAISVVPSLRRLVDALVMTIPALGNILILMSIFFYIFAVIGTMLFQHVSPEYFGNLQLSLLTLFQVVTLESWASGVMRPIFAEVPWSWLYFVSFVLIGTFIIFNLFIGVIVNNVEKAELTDNEEDGEADGLKQEISALRKDVAELKSLLKQLK
modifications: Bacillus Halodurans
notes: pore residues 190-195 LESWAS
voltage of 50% steady-state inactivation [3]: −40 mV
activation τ ([3]; at −10 mV, n=32): 12.9 ± 0.4 ms
inactivation τ ([3]; at −10 mV, n=32): 166 ± 13 ms
reversal potential of INaChBac ([3]; whole-cell, ENa=+72 mV): +70 mV
τact of ensemble average of single channel currents ([4]; 5 cells): 10 ± 3.5 ms
τinact of ensemble average of single channel currents ([4]; 5 cells): 203 ± 43 ms
unitary single channel conductance ([4]; inside-out patch, n=7 cells): 12 pS
slope of Erev as a function of [Na+]o [5]: 57.8 mV/decade
inward current in isotonic [Ca2+]o relative to that in normal [Na+] ([5]; 105 mM Ca2+): < 6%
peak current ([5]; 140 mM [Na+]o/1 mM [Ca2+]o): 1430 pA
current density ([5]; 140 mM [Na+]o/1 mM [Ca2+]o, n=8): 135.9±11 pA/pF
relative selectivity PNa/PCs [5, 7]: 383±56
relative selectivity PNa/PK [5, 7]: 171±16
relative selectivity PNa/PCa ([5]; calculated from measured Erev, n=12): 72±10
peak current ([5]; isotonic [Ca2+]o): 87 pA
current density ([5]; isotonic [Ca2+]o (105 mM Ca2+), −10 mV, n=8): 7.6±0.9 pA/pF
current in COS-7 cells relative to CHO-K1 cells [6]: 4 to 6 times
GFP expressing/transfected cells with substantial or detectable currents ([6]; 24-48 hours after transfection): More than 98%
V1/2 act ([6]; Boltzmann fit of tail currents): −22 mV
τact ([6]; membrane voltage −10 mV): 12.9 ± 0.4^a ms
τinact ([6]; membrane voltage −10 mV): 166.0 ± 13^a ms
kact ([6]; slope factor of activation): 7 mV/e fold
V1/2 inact ([6]; steady state inactivation, 2 s prepulses): −40 mV
current in 10 mM Ca2+/NMDG solution compared to 10 mM Ca2+ solution with Na+ [2]: almost undetectable
current on replacing 140 mM Na+/10 mM Ca2+ solution by isotonic (105 mM) Ca2+ solution [2]: practically undetectable
PCa/PNa ([2]; listed as wt NaChBac): 0.15
current in 10 mM Ca2+/NMDG solution compared to 10 mM Ca2+ solution with Na+ ([2]; listed as wt NaChBac): virtually eliminated
